# Test results: paper PMC3749956 (PLoS Pathogens, 2013)
# Legend:
# [1] = molecular target: tA27-WT (aa 21–84, C71A/C72A, extra N-terminal tryptophan) (vaccinia virus (Western Reserve strain)) (UniProt P11258); assay: SEC-MALS
# [2] = molecular target: tA27-WT (aa 21–84, C71A/C72A, extra N-terminal tryptophan) (vaccinia virus (Western Reserve strain)) (UniProt P11258); assay: AUC
# [3] = molecular target: the molecule itself; assay: non-reducing SDS-PAGE with immunoblot (disulfide-linked complexes)
Molecule,stoichiometry N [1],stoichiometry N [2],stoichiometry N [3]
"tA27-WT (aa 21–84, C71A/C72A, extra N-terminal tryptophan) (from UniProt P11258 21-84) (domain or fragment)",2,2,–
"Vaccinia virus A27 protein, full length wild type (natural protein) MDGTLFPGDDDLAIPATEFFSTKAAKKPEAKREAIVKADEDDNEETLKQRLTNLEKKITNVTTKFEQIEKCCKRNDEVLFRLENHAETLRAAMISLAKKIDVQTGRRPYE",–,–,2
